Laboratory results: patent publication US6750028B1, “Anti-fibrotic agent assay” (Ethicon, Inc, priority 1996, dated 2004)

System: TGF-β1 activation
Experiment: Macrophage activation assay (IC-21 macrophages, LPS, fetal fibroblast conditioned media, ELISA)
Assay type: cell-based, mouse
Description: Cultured macrophages were lifted from the dish with 3 ml of PBS. The PBS was balanced with 15 ml of RPMI-1640 containing 10% FBS. The cells were counted and then seeded in 100 mm plates at 1×10^6 cells/dish. When the cultured macrophages reached approximately 70% confluency (2-3 days) they were washed with PBS and RPMI-1640 medium containing 5% FBS and 10 ng/ml LPS was applied (FIG. 1). After 24 h of activation with LPS the cells were washed gently with PBS. At this point conditioned medium from confluent fetal dermal fibroblasts was collected and 5 ml was distributed into each dish containing macrophages. The cells were incubated for an additional 24 h, the media were collected, spun down at 600×g for 10 min and stored at 4° C. before TGF-β1 evaluation by ELISA. Each condition was done in duplicate. The cells, washed with PBS, were harvested for total RNA extraction.
Fetal dermal fibroblasts were seeded in 100 mm dishes at 1×10^6 cell/dish. The cells were grown to confluency (2-3 days). The cultures were washed with PBS and fresh medium, either DMEM supplemented with 10% FBS or AIM-V medium (a serum free medium) for serum-free conditions, was applied for 24 h (FIG. 1). The medium was collected and combined in order to obtain a homogenous pool of latent TGF-β1. The collection of the medium was done just prior to application in the macrophage assay. […]

B1: IGFBP-1: Purified rat Insulin-like Growth Factor Binding Protein 1 (protein, UniProt P21743 26-272, looked up)
Insulin-like growth …: APQPWHCAPCTAERLELCPPVPASCPEISRPAGCGCCPTCALPLGAACGVATARCAQGLSCRALPGEPRPLHALTRGQGACVLEPAAPATSSLSGSQHEEAKAAVASEDELAESPEMTEEQLLDSFHLMAPSREDQPILWNAISTYSSMRAREITDLKKWKEPCQRELYKVLERLAAAQQKAGDEIYKFYLPNCNKNGFYHSKQCETSLDGEAGLCWCVYPWSGKKIPGSLETRGDPNCHQYFNVQN
effect on IGF-II-mediated inhibition of TGF-β1 activation, in words: able to reverse this inhibition

B2: IGFBP-2: Purified rat Insulin-like Growth Factor Binding Protein 2 (protein, UniProt P12843 35-304, looked up)
Insulin-like growth …: EVLFRCPPCTPERLAACGPPPDAPCAELVREPGCGCCSVCARQEGEACGVYIPRCAQTLRCYPNPGSELPLKALVTGAGTCEKRRVGATPQQVADSEDDHSEGGLVENHVDGTMNMLGGSSAGRKPPKSGMKELAVFREKVNEQHRQMGKGAKHLSLEEPKKLRPPPARTPCQQELDQVLERISTMRLPDDRGPLEHLYSLHIPNCDKHGLYNLKQCKMSLNGQRGECWCVNPNTGKPIQGAPTIRGDPECHLFYNEQQENDGAHAQRVQ
effect on IGF-II-mediated inhibition of TGF-β1 activation, in words: no effect on IGF-II action
